Data set [1] has as its target Recombinant mouse AR lacking the N-terminus (mouse). Kind of data set: cryo-EM structure; Grafix cross-linked complex of ΔNTD AR, DHT, ARE35 DNA and ERG (fraction 11); three states (Entrenched, Splayed, Divorced) at 11.4, 9.1 and 9.4 Å; LBD and DBD X-ray coordinates docked.
In another data set the target is AR-AR27Linker (mouse) (UniProt P19091). Kind of data set: fluorescence polarization. The settings on record: 150 mM NaCl, 40 mM Tris pH 8.0, 1 mM TCEP, 20 uM DHT, 10% glycerol, 0.01% NP40, on ice; FP 100 nM DNA, 0-4 uM protein; EMSA 50 nM DNA, 250 nM protein. A general note: Polarisation of emitted light reports the rotation of a fluorescent probe.
Sequence of AR-AR27Linker (mouse) (P19091 whole entry): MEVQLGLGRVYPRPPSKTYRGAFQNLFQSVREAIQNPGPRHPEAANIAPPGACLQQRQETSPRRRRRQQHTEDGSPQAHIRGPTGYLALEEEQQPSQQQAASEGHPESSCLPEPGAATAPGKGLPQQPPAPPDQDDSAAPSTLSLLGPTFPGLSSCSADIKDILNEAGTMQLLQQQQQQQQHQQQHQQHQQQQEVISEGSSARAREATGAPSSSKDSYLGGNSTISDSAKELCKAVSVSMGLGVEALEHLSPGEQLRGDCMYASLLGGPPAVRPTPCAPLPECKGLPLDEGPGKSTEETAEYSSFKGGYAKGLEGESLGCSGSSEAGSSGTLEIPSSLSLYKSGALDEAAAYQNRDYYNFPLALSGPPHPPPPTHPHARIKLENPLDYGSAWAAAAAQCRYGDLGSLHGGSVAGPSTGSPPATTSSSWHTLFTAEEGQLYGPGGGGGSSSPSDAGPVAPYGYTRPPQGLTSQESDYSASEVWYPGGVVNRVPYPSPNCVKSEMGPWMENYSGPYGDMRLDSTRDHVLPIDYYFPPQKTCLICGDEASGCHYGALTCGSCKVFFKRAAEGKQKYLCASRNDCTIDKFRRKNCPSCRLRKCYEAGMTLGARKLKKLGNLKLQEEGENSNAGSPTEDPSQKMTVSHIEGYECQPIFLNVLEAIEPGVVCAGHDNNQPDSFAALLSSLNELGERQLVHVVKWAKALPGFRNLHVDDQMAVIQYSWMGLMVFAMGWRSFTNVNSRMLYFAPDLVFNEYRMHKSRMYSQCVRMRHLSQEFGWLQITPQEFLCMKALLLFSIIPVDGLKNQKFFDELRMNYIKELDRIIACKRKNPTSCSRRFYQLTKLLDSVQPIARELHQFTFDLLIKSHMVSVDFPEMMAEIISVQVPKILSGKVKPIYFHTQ
In the next data set the target is AR-AR18Linker (mouse) (UniProt P19091). Kind of data set: fluorescence polarization. The settings on record: 150 mM NaCl, 40 mM Tris pH 8.0, 1 mM TCEP, 20 uM DHT, 10% glycerol, 0.01% NP40, on ice; FP 100 nM DNA, 0-4 uM protein; EMSA 50 nM DNA, 250 nM protein.
Sequence of AR-AR18Linker (mouse) (P19091 whole entry, the tested form may be a part): as the sequence (P19091 whole entry) above
The target of data set [2] is AR deltaNTD WT;ERG full-length (mouse;human, UniProt P19091;P11308-1 530-899;1-462, |). Kind of data set: cryo-EM (9.1-11.4 A); DHT; GraFix cross-linked; AR dimer; EMD-25132, EMD-25133, EMD-25134; 150 mM NaCl, 40 mM Tris pH 8.0, 1 mM TCEP, 20 uM DHT, 10% glycerol, 0.01% NP40, on ice; FP 100 nM DNA, 0-4 uM protein; EMSA 50 nM DNA, 250 nM protein. The settings on record: protein: recombinant;recombinant, tags: Smt3 fusion, removed by Ulp1;Smt3 fusion, chain copies: 2;1, label: unlabeled, blunt.
Sequence of AR deltaNTD WT;ERG full-length (P19091 530-899, stated change not applied, chain 1 of 2): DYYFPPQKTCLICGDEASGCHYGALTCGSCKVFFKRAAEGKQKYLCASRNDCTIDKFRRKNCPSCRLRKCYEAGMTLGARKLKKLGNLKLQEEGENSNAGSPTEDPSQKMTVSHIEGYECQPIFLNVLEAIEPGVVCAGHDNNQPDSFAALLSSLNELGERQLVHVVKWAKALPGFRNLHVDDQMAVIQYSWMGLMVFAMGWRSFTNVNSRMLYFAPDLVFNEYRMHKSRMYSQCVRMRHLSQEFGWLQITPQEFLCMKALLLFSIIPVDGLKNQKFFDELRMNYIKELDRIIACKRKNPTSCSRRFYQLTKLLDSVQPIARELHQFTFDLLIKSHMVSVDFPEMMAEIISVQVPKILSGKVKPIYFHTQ
Sequence of AR deltaNTD WT;ERG full-length (P11308 other isoform, or with tags, fused parts or gaps | | mutant, chain 2 of 2): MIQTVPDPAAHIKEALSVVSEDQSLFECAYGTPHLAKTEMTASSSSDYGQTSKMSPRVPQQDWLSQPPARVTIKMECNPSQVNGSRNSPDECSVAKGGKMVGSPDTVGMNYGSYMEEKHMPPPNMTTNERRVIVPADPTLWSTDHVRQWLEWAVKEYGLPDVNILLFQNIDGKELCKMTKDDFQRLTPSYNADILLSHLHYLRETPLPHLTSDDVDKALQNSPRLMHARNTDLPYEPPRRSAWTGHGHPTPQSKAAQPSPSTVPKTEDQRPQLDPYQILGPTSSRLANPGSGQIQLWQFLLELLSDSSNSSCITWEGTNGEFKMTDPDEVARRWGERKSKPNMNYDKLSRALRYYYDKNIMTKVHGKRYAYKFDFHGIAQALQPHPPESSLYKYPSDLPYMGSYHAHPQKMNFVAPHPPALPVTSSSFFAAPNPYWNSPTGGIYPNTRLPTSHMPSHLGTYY

Another data set deals with AR deltaNTD WT (mouse, UniProt P19091 530-899). Kind of data set: fluorescence polarization; DHT; 150 mM NaCl, 40 mM Tris pH 8.0, 1 mM TCEP, 20 uM DHT, 10% glycerol, 0.01% NP40, on ice; FP 100 nM DNA, 0-4 uM protein; EMSA 50 nM DNA, 250 nM protein. The settings on record: protein: recombinant; tags: Smt3 fusion, removed by Ulp1; chain copies: 2; label: 5' fluorescein (FP); unlabeled (EMSA); blunt.
Sequence of AR deltaNTD WT (P19091 530-899, stated change not applied): as the sequence (P19091 530-899, stated change not applied, chain 1 of 2) above

This note sets out measurements from PMC9177810, “Allosteric interactions prime androgen receptor dimerization and activation”.

As a reminder, the stoichiometry N is a count of units in the complex or per binding partner.

Consider “Recombinant mouse AR lacking the N-terminus (domain or fragment)”, for which the stoichiometry N in data set [1] was found to be 2.

As to “TACCTAGCGTGGCCAGAACATCATGTTCTCCGGTGCGATCCAG (double strand) [ARE/Scr (ARE43)]”, the binding signal (fold weaker than WT AR) with AR-AR27Linker (mouse) is 3. The binding signal (fold tighter than WT AR) with AR-AR18Linker (mouse) is 5.

B1: ARE35 (dsDNA)
DNA 1: TAGCGTGGCCAGAACATCATGTTCTCCGGTGCGAT
DNA 2: ATCGCACCGGAGAACATGATGTTCTGGCCACGCTA
Take B1: the binding result in data set [2] was “binds”.

B2: ARE/Scr (ARE43) (dsDNA)
DNA 1: TACCTAGCGTGGCCAGAACATCATGTTCTCCGGTGCGATCCAG
DNA 2: CTGGATCGCACCGGAGAACATGATGTTCTGGCCACGCTAGGTA
Regarding B2, the binding result with AR deltaNTD WT is recorded as “binds”.
